Results published in PMC11826918, “Generation of antagonistic biparatopic anti-CD30 antibody from an agonistic antibody by precise epitope determination and utilization of structural characteristics of CD30 molecule” (Antibody Therapeutics, 2025).
Positions count from the first letter of the chain named.

B1: T105 cAb (antibody, V domains shown)
VH: QVTLKESGPGILQPSQTLSLTCSFSGFSLSTSGMGVSWIRQPSGKDLEWLAHIYWDDDKRYNPSLKSRLTISKDTSSNQVFLKITSVDTADTATYYCARRADGLYFYLDVWGAGTTVTVSS
VL: DIVMTQSQKFMSTSVGDRVSVTCKASQNVNTNVAWYQQKPGQSPEALIYSASYRYSGVPDRFTGSGSGTDFTLTISNVQSEDLAEYFCQQYNSYPLTFGSGTKLEIK
B2: AC10 cAb (antibody, V domains shown)
VH: QIQLQQSGPEVVKPGASVKISCKASGYTFTDYYITWVKQKPGQGLEWIGWIYPGSGNTKYNEKFKGKATLTVDTSSSTAFMQLSSLTSEDTAVYFCANYGNYWFAYWGQGTQVTVSA
VL: DIVLTQSPASLAVSLGQRATISCKASQSVDFDGDSYMNWYQQKPGQPPKVLIYAASNLESGIPARFSGSGSGTDFTLNIHPVEEEDAATYYCQQSNEDPWTFGGGTKLEIK
B3: T427 cAb (antibody, V domains shown)
VH: QVQLQQPGTELVRPGASVKLSCKASGFSFTSYWMNWVKQRPGQGLEWIGMIHPSDSETRLNQKFKDRATLTVDKSSSTAYMQLSSPTSEDSAVYYCASEMDYYFAMDYWGQGTSVTVSS
VL: DIVLTQSPTSLAVSLGQRATISCRASESVDSYGNSFMHWFQQKPGQPPKLLIYRASNLESGIPARFSGSGSWTDFTLTINPVEADDVATYYCQQSNEDPRTFGGGTKLEIK
B4: T107 cAb (antibody, V domains shown)
VH: QVQLQQSGPELVRPGVSVKISCKGSGYSFPDYPLHWVKQSHAKSLEWIGIILTYSGNTNYNQNFKGKATMTVDTSSNTAYLELARLTSEDSAIYYCATFYYGYDGAFDYWGQGTTLTVSS
VL: DIVMTQSPSSLTVTAGEKVTMSCKSSQSLLNSGNQKNYLTWYQQKPGQPPKLLIHWASTRESGVPDRFTGSGSGTDFILTITSVQAEDLAVYYCQNDYTYPLTFGGGTKLELK
B5: T104 cAb (antibody, V domains shown)
VH: QIQLVQSGPELKKPGETVKISCKASGYTFTDYSMHWVKQAPGKGLKWMGWINTETGEPTYADDFKGRFAFSLETSASTAYLQINNLKNEDTATYFCTEGYVFDFWGQGTTLTVSS
VL: DILLTQSPAILSVSPGERVSFSCRASRSIGTSIHWYQQRTNGSPRLLINYASESISGIPSRFSGSGSGTDFTLSINSVESEDIADYYCQQSNSWPLTFGAGTKLELK
B6: T6 cAb (antibody, V domains shown)
VH: QVQLKESGPGLVTPSQSLSITCTVSGFSLSKYSIHWVRQPPGRGLEWLGMIWGVENTDYNSALKSRLSISKDNSKSQVFLKMNSLQSDDTAMYYCARKDLGLYGMNYWGQGISVTVSA
VL: B1 VL with N30G, E45K, I48F, T63I, D70V, S93T, K107E
B7: T25 cAb (antibody, V domains shown)
VH: QVTLKESGPGILQPSQTLSLTCSFSGFSLNTSGVGVGWIRQPSGKGLEWLAHIWWDDDERYNPVLKSRLTISKDTSSNQVFLKIANVDTADSATYYCVRSMVAWFPYWGRGTLVTVSA
VL: DIVMSQSPSSLAVSVGEKFTVNCKSSQSLLYSSNQKNFLAWYQQKPGQSPKLLIYWASTRESGVPDRFIGSGSGTDFTLTISSVKAEDLAVYYCQQHYRYPWTFGGGTKLEIK
B8: T405 cAb (antibody, V domains shown)
VH: QVQLQQIGAELVRPGASVKLSCKASGYTFNNYWINWVKQRPGQGLEWIGNIYPSDSRSNYNQKFKDKATLTVDKPSSTAYMQLSSPTSEDSAVYYCTLGSYWGQGTLVTVSA
VL: not shown
B9: T426 cAb (antibody, V domains shown)
VH: EVQLQQSGAELVKPGASVKLSCTASGFNVKDTYVHWVKQRPEQGLEWIGRIDPANSDTKYDSKFQGKATTSADTSSNTAYLQLNSLTSEDTAVYYCASGTDDYYWYFDVWGAGTTVTVSS
VL: DIVLTQSPASLAVSLGQRATISCRASKSVSTPAHTYMHWYQQKPGQPPKLLIYLASNLESGVPARFSGSGSGTDFTLNIHPVEVEDAATYYCQHSRVLPYTFGGGTKLEIK

target: T1, maltose-binding protein-fused CD30 (Homo sapiens, UniProt P28908-1); assay: SPR; Biacore T200; cAb or BpAb captured on anti-human Fc (CM5), CD30-MBP flowed at 0, 2 and 20 nM (0, 20 and 200 nM for T426), contact 90 s, dissociation 300 s; 'at a rough level'; conditions: both partners purified
T1 construct: signal peptide in the construct; human CD30 extracellular domains, residues 1-336; also called CD30-MBP; source: Expi293, purified (Ni-NTA, Superdex200); not shown: MBP, C-terminal, kept
T1 sequence (P28908 19-336): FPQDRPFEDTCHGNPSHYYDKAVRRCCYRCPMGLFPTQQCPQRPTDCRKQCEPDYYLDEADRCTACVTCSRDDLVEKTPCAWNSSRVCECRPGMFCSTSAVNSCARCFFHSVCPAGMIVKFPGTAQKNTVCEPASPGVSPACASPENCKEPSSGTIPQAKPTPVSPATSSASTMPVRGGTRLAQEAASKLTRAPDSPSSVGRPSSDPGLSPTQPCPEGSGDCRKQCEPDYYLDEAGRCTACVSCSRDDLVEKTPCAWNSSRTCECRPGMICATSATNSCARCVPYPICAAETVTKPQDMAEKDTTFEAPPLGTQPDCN

Binding result, binds:
B1
B2
B3
B4
B5
B6
B7
B8

target: T2, CD30 fused to rabbit Fc (Homo sapiens, UniProt P28908-1); assay: ELISA; mutual competition: indicator cAb (0.75 μg/mL) captured on goat anti-human IgG Fc; CD30-rFc (50 ng/mL) pre-incubated overnight at 4 °C with competitor cAb (2.8 μg/mL); bound CD30-rFc probed with anti-rabbit IgG; conditions: one partner purified
T2 construct: signal peptide in the construct; human CD30 whole extracellular domains, NP_001234.3 amino acids 1-383; also called CD30-rFc; source: HEK293T, transfected, harvested from the culture supernatant; not shown: hinge and Fc (rabbit IgG1), C-terminal, kept
T2 sequence (P28908 19-383): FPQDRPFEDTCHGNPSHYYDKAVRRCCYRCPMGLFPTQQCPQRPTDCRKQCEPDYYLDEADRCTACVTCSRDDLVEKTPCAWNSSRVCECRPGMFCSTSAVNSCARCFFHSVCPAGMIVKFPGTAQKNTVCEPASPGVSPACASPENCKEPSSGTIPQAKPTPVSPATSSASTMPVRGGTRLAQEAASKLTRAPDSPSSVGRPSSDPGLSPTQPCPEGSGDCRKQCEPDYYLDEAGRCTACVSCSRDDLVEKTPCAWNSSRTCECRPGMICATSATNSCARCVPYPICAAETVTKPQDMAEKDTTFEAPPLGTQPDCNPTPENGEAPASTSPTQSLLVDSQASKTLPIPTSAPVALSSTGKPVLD

Binding result, binds:
B9
B1
B2
B3
B4
